Paper PMC5758890

Experiments:
[1] = biological target: T. thermophilus RNAP σ^A holoenzyme (T. thermophilus HB8) (UniProt Q5SHR6); assay: SPR
[2] = biological target: T. thermophilus RNAP core enzyme (T. thermophilus) (UniProt Q5SHR6); assay: SPR

Substance: Thermus thermophilus bacteriophage P23–45 gp76 (natural protein)
- Kd [1]: 0.12 µM
- Kd [2]: 8.4 µM
